According to paper PMC6201868, “Significance of a histone-like protein with its native structure for the diagnosis of asymptomatic tuberculosis” (PLoS ONE, 2018):

B1: rN-MDP1 (amino acids 1-100 of mycobacterial DNA-binding protein 1, histidine-tagged) (domain or fragment)
chain: MGMNKAELIDVLTQKLGSDRRQATAAVENVVDTIVRAVHKGDSVTITGFGVFEQRRRAARVARNPRTGETVKVKPTSVPAFRPGAQFKAVVSGAQRLPAE
notes: also called N-terminal half of MDP1

How the values were obtained:
[1] = molecular target: rFull-MDP1 (full-length HIS-tagged recombinant mycobacterial DNA-binding protein 1) (M. tuberculosis) (UniProt P9WMK7); test: cross-linking
[2] = molecular target: the molecule itself; test: […], buffer pH 7.0 with 300 mM NaCl, […]

Row | Molecule | stoichiometry N [1] | stoichiometry N [2]
1 | rFull-MDP1 (full-length HIS-tagged recombinant mycobacterial DNA-binding protein 1) (from UniProt P9WMK7 1-216) (natural protein) | 2 | –
2 | B1 | – | 2
